The source of these data is patent US20230399403A1 (BIONTECH, published 2023).

The target in this test is T1, full-length human PD-1 expressed on cells (human, UniProt Q15116 25-288).
T1 construct: also called HEK-293 cells ectopically expressing full-length human-PD1 (BPS Biosciences)
Kind of test: flow cytometry, K562 cells electroporated with full-length human PD-1 mRNA, dilutions of RiboMab-containing supernatant.

T1 sequence (Q15116 25-288 limits assumed): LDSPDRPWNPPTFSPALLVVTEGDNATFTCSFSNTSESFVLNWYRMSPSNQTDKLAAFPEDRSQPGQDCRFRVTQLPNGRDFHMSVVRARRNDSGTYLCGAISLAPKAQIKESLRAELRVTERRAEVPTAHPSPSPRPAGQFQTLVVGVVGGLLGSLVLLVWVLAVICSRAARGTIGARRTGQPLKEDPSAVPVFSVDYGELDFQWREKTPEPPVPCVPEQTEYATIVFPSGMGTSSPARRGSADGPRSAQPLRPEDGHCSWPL
Protocol: 20×10⁶ cells K562 cells growing in log-phase were used for electroporation of full-length human PD-1. Cells in 250 μL X-Vivo 15 medium (LONZA Technologies, cat. no. BE02-060F) were combined in 4 mm gap cuvettes with 10 μg human PD-1-encoding IVT-mRNA. Cells were immediately electroporated with a BTX ECM830 (BTX Harvard Apparatus) with the following setting: 200 V, 3 pulses, 8 ms.
Binding of RiboMabs to K562 cells expressing PD-1 was analyzed by flow cytometry. […] Cells were washed twice with FACS buffer, re-suspended in 60 μL FACS buffer and analyzed on a BD FACSCanto™ II flow cytometer (BD Biosciences). Binding curves were analyzed by non-linear regression (log(agonist) vs. response—variable slope (four parameters)) using GraphPad Prism V9.1.0 software.

B1: RiboMab-19-0233 (antibody, V domains shown)
VH: QSLEESGGDLVKPGASLTLTCKASGIDFSSVYYMCWVRQAPGKGLEWIACIYVGSSGVSYYATWAKGRFTISKTSSTTVTLQMTSLTAADTATYFCARAGYVGAVYVTLTRLDLWGQGTLVTVSS
VL: AAVLTQTPSPVSAAVGGTVTISCQSSQSIYTNNDLAWYQQKPGQPPKLLIYDASKLASGVPSRFSGSGSGTQFTLTISGVQSDDAATYYCLGGYDDDADNAFGGGTEVVVK
notes: Tested as HEK293T/17 supernatant, concentration not determined
For B1, the “fold difference in EC50 values (RiboMab-19-0233 against RiboMab-19-0202)” value was around 2.5 fold.
